Reference: patent publication US20210238279A1 (Johns Hopkins, published 2021)
Changes are numbered by the printed parent chain.

T1: human ZnT3 with C-terminal FLAG tag (human, UniProt Q99726 1-388)
T1 construct: Commercial HEK293 lysate (Origene), SDS-denatured on immunoblots; not shown: C-terminal FLAG octapeptide
T1 sequence (looked up): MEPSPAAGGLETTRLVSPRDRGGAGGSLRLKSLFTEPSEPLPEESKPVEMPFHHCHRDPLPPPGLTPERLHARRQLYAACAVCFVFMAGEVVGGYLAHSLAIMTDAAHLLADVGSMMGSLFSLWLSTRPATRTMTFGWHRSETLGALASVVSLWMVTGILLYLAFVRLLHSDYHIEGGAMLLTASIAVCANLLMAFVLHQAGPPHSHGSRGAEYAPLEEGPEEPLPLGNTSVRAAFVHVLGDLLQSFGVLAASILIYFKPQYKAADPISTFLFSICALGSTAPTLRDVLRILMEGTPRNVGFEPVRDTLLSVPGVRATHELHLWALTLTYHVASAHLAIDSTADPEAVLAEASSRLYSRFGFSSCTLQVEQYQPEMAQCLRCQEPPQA

T2: human ZnT10 with C-terminal FLAG tag (human, UniProt Q6XR72 1-485, limits assumed)
T2 construct: Commercial HEK293 lysate (Origene), SDS-denatured on immunoblots; not shown: C-terminal FLAG octapeptide
T2 sequence (looked up): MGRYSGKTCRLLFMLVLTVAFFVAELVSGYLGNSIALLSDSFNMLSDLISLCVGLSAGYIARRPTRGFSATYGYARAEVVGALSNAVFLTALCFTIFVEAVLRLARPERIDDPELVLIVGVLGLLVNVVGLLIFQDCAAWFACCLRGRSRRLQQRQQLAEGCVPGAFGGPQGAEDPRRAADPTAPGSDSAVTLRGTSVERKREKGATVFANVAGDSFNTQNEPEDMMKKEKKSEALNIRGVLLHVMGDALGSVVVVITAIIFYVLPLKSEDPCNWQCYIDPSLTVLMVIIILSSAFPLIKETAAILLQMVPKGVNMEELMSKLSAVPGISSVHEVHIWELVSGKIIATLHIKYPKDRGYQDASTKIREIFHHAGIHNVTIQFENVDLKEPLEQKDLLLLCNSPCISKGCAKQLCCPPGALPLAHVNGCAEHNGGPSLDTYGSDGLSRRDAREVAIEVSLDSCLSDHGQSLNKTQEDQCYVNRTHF

T3: mouse ZnT8-His (mouse, UniProt Q8BGG0 1-367, limits assumed)
T3 construct: Over-expressed in HEK293 cells, solubilized with DDM and immobilized on Ni-NTA plates, or SDS-denatured on immunoblots; not shown: C-terminal poly-histidine tag
T3 sequence (looked up): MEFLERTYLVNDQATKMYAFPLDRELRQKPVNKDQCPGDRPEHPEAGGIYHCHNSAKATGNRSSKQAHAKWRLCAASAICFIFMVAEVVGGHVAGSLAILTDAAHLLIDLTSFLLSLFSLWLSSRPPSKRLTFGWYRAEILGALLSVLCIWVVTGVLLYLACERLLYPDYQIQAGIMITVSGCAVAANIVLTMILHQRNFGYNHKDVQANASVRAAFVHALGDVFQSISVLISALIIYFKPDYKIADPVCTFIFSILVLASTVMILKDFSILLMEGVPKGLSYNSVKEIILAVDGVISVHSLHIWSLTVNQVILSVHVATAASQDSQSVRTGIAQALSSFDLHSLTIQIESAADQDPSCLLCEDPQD

B1: mAb20 (antibody, V domains shown)
VH: QIQLVQSGPELKKPGETVKISCKASGYIFTNYPMHWVKQAPGKGLKWMGWINTYSGVPTHADDFKGRFAFSLETSANSAFLQINNLKNEDTATYFCTRSRITPTGGYAMDYWGQGTSVTVSS
VL: DVVMTQTPLSLPVSLGDQASISCRSSQSLVHSNGNTYLHWYLQKPGQSPNLLISKVSNRFSGVPERFSGSGSGTDFTLKISRVEAEDLGVYFCSQNTHVPWTFGGGTKLEIKR
notes: Mouse hybridoma mAb purified on protein A/G; In some assays it was labelled with Alexa Fluor 488 or terbium cryptate; also called monoclonal antibody mAb20; anti-ZnT8 mAb20
B2: mAb39 (antibody, V domains shown)
VH: QVQLQQPGAELVKPGASVKLSCKASGYSFTTYWMHWVKQRPGQGLEWVGDINPRNGRTNYNEKSKSKATLTVDISSSTVYMQVSSLTSEDSAVYYCAIWSGAMDYWGPGTSVTVSS
VL: B1 VL with A19P, R24K, S32N, N50K, S54Y, E65D, N96T, W101P
notes: Mouse hybridoma mAb purified on protein A/G; In some assays it was labelled with Alexa Fluor 555 or d2; also called monoclonal antibody mAb39; anti-ZnT8 mAb39

Experiments:
[1] = target: T1, human ZnT3 with C-terminal FLAG tag; experiment: immunoblot of HEK293 lysates over-expressing FLAG-tagged ZnT homologs
Text: (§1) FIG. 7A-7D. mAb binding specificities (FIG. 7A) mAb binding to ZnT8-His immobilized to Ni-NTA plate. Bound mAb20 (red) or mAb39 (magenta) was detected by an HRP-conjugated secondary antibody. Solid lines are least-squares fits of binding datapoints to a one-component binding process. Error bars are standard errors (n=8). (FIG. 7B) SDS-denatured mouse ZnT8-His (labeled as M) and human ZnT8-His (labeled as H) on immunoblots were detected by mAb20 or mAb39 as indicated. […] (FIG. 7C) Detection of endogenous human ZnT8 in EndoC-βH cells by mAb20 or […] immunoblotting. An equal amount of EndoC-βH lysate (5 μg total protein) was loaded to each lane. (FIG. 7D) Immunoblotting of HEK lysates with or with over-expression of a ZnT homolog as indicated. An approximately equal amount of total lysate protein (5 μg) was located to each lane, probed by either mAb20, mAb39, or anti-FALG antibody as indicated. FIG. 8. HTRF response to human ZnT8, mouse ZnT8 and human ZnT3.
(§2) Immunoblotting. SDS-solubilized cell lysate of EndoC-β cells or HEK293 cells over-expressing ZnT8 was subjected to SDS-PAGE and probed with a 1:3000 mAb20 or mAb39, followed by 1:3000 anti-mouse HRP-conjugated secondary antibody (GE Healthcare cat. #NA931V). A duplicated gel was Coomassie-stained to show an equal protein loading for each lane ([…]). To compare the mAb20 or mAb39 reactivities to different ZnT homolog, we used commercial HEK293 lysates with lentivirus-mediated over-expression of ZnT1, ZnT2, ZnT3, ZnT4, ZnT7, ZnT8, ZnT10, each is tagged by a Flag tag at the C-terminus (Origene, catalog nos. LY500001, LC412033, LC423751, LC401170, LY415673, LC428544, LC406320, and LC412886). Approximately equal amounts of total protein (5 μg) was loaded to each lane, and then probed with mAb20, mAb39, or anti-FLAG antibody (Origene, catalog no. TA50011-100) as above. The expression levels of ZnT homologs varied with ZnT1 most abundantly expressed.

[2] = target: T2, human ZnT10 with C-terminal FLAG tag; experiment: as above
Text: as §1, §2

[3] = target: T3, mouse ZnT8-His; experiment: ELISA titration on mouse ZnT8-His immobilized on Ni-NTA plate; apparent binding affinity, one-component fit; DDM-solubilized mouse ZnT8 immobilized to Ni-NTA plate via His-tag; mAb titration
Text: as §1
Binding specificities. […] Of note, the epitope-masking effect of ZnT8 immobilization weakened the apparent binding affinities of both mAbs as compared to the affinities determined by flow-cytometry, and such a weakening effect was more pronounced for mAb39, probably due to a closer proximity of the mAb39 epitope to the C-terminal His-tag. Next, we compared the immunoreactivities of mAbs to denatured ZnT8.

Binder | binding result [1] | binding result [2] | Kd [3] [nM]
B1 | no binding | no binding | 1420
B2 | no binding | no binding | 35.8
